Substrate in data set [1]: CC(=O)SCCNC(=O)CCNC(=O)[C@H](O)C(C)(C)COP(=O)(O)OP(=O)(O)OC[C@H]1O[C@@H](n2cnc3c(N)ncnc32)[C@H](O)[C@@H]1OP(=O)(O)O
In words: purified protein. Conditions: 1000 μM 5-thiohistidine; otherwise same. The format is biochemical, Proteiniphilum saccharofermentans.

Substrate in data set [2]: N[C@@H](Cc1[nH]cnc1S)C(=O)O
Kind of data set: purified protein. Conditions: 500 μM acetyl-CoA, 0.2 μM enzyme; phosphate pH 8.0, 20 mM NaCl, 2 mM TCEP, 26 °C (buffer and temperature from the activity assay); pH 8.0; 26.0 °C. In kind it is biochemical, Proteiniphilum saccharofermentans.

B1: 5THNAT (Proteiniphilum saccharofermentans) (protein)
chain: MYLVSGSSLFYGWFKKNMDSIKGTVEIYDLDEYNYPKFRGQLIGLYLHAFTTGDYSQHIDRETVEVTLDDILQDGSGCMAFVGNRLVGLLAAFPLKRDPDFPADTCRDIPVGEAIYIAEVMVHADYRGRRIASKMLNTYLQEKSENYSYAVIRVWEKNMPALELYKKLGFLPVATISQQKLSANKEEFVMNKLYLAVKIIDN
notes: recombinant, produced in Escherichia coli, Ni-NTA purified (tag details not in main text)
As usually defined, the Km is the substrate concentration at which the rate is half of its maximum. Take B1: the results for the Michaelis constant (Km) in data set [1] and in data set [2] were 73 µM and 58 µM, respectively.
